Measurements as given in PMC8376421.

Biological target: recombinant hACE2-AviTag protein (human) (UniProt Q9BYF1)
Assay: SPR

Chain of UniProt Q9BYF1 (Q9BYF1 18-740): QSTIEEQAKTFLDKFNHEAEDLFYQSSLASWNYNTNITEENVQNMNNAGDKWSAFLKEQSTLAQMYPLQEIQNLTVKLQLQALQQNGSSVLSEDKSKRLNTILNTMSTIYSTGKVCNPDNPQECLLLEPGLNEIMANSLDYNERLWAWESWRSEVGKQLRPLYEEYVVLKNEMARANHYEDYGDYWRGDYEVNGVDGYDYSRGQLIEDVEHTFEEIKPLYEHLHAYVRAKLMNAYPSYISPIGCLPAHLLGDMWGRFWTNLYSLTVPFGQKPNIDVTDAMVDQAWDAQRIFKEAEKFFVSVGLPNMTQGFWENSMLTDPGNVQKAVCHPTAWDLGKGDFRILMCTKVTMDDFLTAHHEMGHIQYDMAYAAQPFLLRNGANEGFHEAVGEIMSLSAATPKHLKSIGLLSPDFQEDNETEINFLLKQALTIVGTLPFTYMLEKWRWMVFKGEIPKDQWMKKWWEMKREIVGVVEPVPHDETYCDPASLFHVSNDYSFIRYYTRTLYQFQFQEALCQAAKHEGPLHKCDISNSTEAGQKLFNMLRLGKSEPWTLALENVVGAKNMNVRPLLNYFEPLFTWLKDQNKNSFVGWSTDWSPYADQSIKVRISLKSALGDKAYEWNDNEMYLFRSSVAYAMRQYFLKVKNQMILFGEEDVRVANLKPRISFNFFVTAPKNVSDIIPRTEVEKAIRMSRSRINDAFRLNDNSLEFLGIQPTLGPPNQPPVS

SARS-CoV-2 spike RBD-MBP fusion protein (domain or fragment)
Kd: 19 nM
